Results taken from article PMC6542180.

Target: endogenous SHP-1 (UniProt P29351)
Assay: GST pull-down of endogenous macrophage SHP-1
Details: reference: wild type

Substance	binding against the reference (sites Y490)	binding against the reference (sites Y519)
EHEC (EDL933) Tir (from UniProt Q7DB77) Y490F	weaker	–
EHEC (EDL933) Tir (from UniProt Q7DB77) Y519F	–	weaker
